{"source": "patent US20030092616A1", "about": "“STAT6 activation gene” (priority 2001, published 2003)"}
{"system": "STAT6", "experiment": "Screening of full-length cDNA clones for promotion of STAT6 activation (luciferase reporter N4×8-luc)", "type": "cell-based", "conditions": "NIH3T3 cells cotransfected with N4×8-luc reporter and cDNA plasmid; 48 h culture, then mouse IL-4 0.5 ng/ml for 6 h", "method": "As a preferable method, NIH3T3 cells are inoculated on 10% FBS (Fetal Bovine Serum)-containing IMDM medium in a 96-well cell culture plate to a final cell density of 1×10^4 cells/well, and cultured for 24 hours at 37° C., in the presence of 5% CO2. Then, the luciferase reporter plasmid N4×8-luc which has a STAT6 response sequence, and the expression vector are cotransfected into the cells in a well using FuGENE 6 (Roche). After 48 hours of culture at 37° C., in the presence of 5% CO2 mouse IL-4 (Immuno Biological Laboratories Co., Ltd.) is added to a final concentration of 0.5 ng/ml. After culturing for further 6 hours, promoting activity for STAT6 activation is then measured by measuring luciferase activity using a long term luciferase assay system, Picagene LT2.0 (Toyo Ink Mfg). For example, luciferase activity can be measured using PerkinElmer's Wallac ARVOTMST 1420 MULTILABEL COUNTER. The method for gene introduction by FuGENE6, and measurement of luciferase activity by Picagene LT2.0 can be performed respectively according to the attached protocols. In a method of gene introduction with a 96-well plate using FuGENE6, the amount of FuGENE6 per 1 well is suitably 0.3 to 0.5 μl, preferably 0.3 μl; the amount of N4×8-luc reporter plasmid is suitably 50 to 100 ng, preferably 100 ng; and the amount of expression vector is suitably 50 to 100 ng, preferably 100 ng. An ability (action) to promote STAT6 activation refers to an ability to increase the reporter activity (luciferase activity) relative to the control experiment (for cells into which the reporter gene and a null vector were introduced). Increase in reporter activity is preferably by a factor of 1.5 or more, more preferably by a factor of 3 or more, and still more preferably by a factor of 6 or more.\nNIH3T3 cells (purchased from Dainippon Pharmaceutical) were grown to 1×10^4 cells/well in a 96 well plate for cell culture for 24 hours at 37° C. (in the presence of 5% CO2) using 10% FBS containing IMDM medium. Then, 100 ng of luciferase reporter plasmid N4×8-luc having a STAT6 response sequence and 2 μl of the full-length cDNA prepared in above Example 1.(3) were cotransfected into the cells in a well using FuGENE 6 (purchased from Roche) according to the manufacturer's protocol. The luciferase reporter plasmid N4×8-luc having the STAT6 response sequence was constructed as follows. […] 157, 2058-2065 (1996)], oligonucleotides having the following sequences were synthesized:\nThe synthesized oligonucleotides were dissolved in sterile water to be 1μg/μl, respectively, mixed in 10 μl lots, and adjusted the volume to 32 μl with sterile water. The solution was heated for 5 min at 90° C., and gradually cooled down to room temperature to prepare a double-stranded oligonucleotide solution. The solution was reacted with T4 polynucleotide kinase (Takara Shuzo) according to the attached manual, then the reaction product was purified in a usual manner. Separately, SV40 promoter region of pGL3-Promoter vector (Promega) was replaced by the HSV thymidine kinase promoter sequence (from −50 to +10) with Hind III site and BglII site to construct a vector tk-luc. The aforesaid double-stranded oligonucleotide fragments were inserted into the XhoI site of this tk-luc vector using T4 DNA ligase (GIBCO/BRL). The obtained clones were sequenced according to a usual method, and clones in which plural oligonucleotide fragments were inserted were selected. […] The four-interlinked DNA fragments were excised from the N4×4-luc with a XhoI and a BglII site and purified to be inserted into a BamHI and a XhoI site of pBluescript II KS+ (Stratagene). The four-interlinked DNA fragments were excised from this plasmid with KpnI and SpeI and inserted into a KpnI and a NheI site of N4×4-luc plasmid to finally obtain N4×8-luc."}
{"molecule": "219 (nucleic acid, listed as Homo sapiens, CDS (398)..(928)) GTATACCACAGACCAAAGCACCTTTGACATTTTGCAGGATTTGGAGTTTTCTTCTGGGTCCCCAGGTAAAGAGACGAATGAGAGTCCTTGGAGATCAGACCTGTTGATAGATGAAAACTGTTTGCTTTCTCCTCTGGCGGGAGAAGACGATTCATTCCTTTTGGAAGGAAACTCGAATGAGGACTGCAAGCCTCTCATTTTACCGGACACTAAACCCAAAATTAAGGATAATGGAGATCTGGTTTTGTCAAGCCCCAGTAATGTAACACTGCCCCAAGTGAAAACAGAAAAAGAAGATTTCATCGAACTCTGCACCCCTGGGGTAATTAAGCAAGAGAAACTGGGCACAGTTTACTGTCAGGCAAGCTTTCCTGGAGCAAATATAATTGGTAATAAAATGTCTGCCATTTCTGTTCATGGTGTGAGTACCTCTGGAGGACAGATGTACCACTATGACATGAATACAGCATCCCTTTCTCAACAGCAGGATCAGAAGCCTATTTTTAATGTCATTCCACCAATTCCCGTTGGTTCCGAAAATTGGAATAGGTGCCAAGGATCTGGAGATGACAACTTGACTTCTCTGGGGACTCTGAACTTCCCTGGTCGAACAGTTTTTTCTAATGGCTATTCAAGCCCCAGCATGAGACCAGATGTAAGCTCTCCTCCATCCAGCTCCTCAACAGCAACAACAGGACCACCTCCCAAACTCTGCCTGGTGTGCTCTGATGAAGCTTCAGGATGTCATTATGGAGTCTTAACTTGTGGAAGCTGTAAAGTTTTCTTCAAAAGAGCAGTGGAAGGACAGCACAATTACCTATGTGCTGGAAGGAATGATTGCATCATCGATAAAATTCGAAGAAAAAACTGCCCAGCATGCCGCTATCGAAAATGTCTTCAGGCTGGAATGAACCTGGAAGCTCGAAAAAC", "Activity = (luciferase activity of the gene of each SEQ ID NO:)/(luciferase activity of pME18S-FL3)": 12.7}
{"molecule": "50 (nucleic acid, listed as Homo sapiens, CDS (9)..(686)) AATTCAACATGGCAGCCATGCGCTGGCGATGGTGGCAGCGGCTGTTACCTTGGAGGTTGCTGCAGGCCCGTGGCTTTCCACAAAATTCTGCACCCAGCCTGGGCCTAAGAGCGAGGACTTATTCCCAGGGCGACTGCTCGTATTCGCGCACGGCGCTGTATGATCTGCTCGGCGTCCCCTCCACAGCCACGCAGGCCCAAATCAAGGCGGCTTACTACCGTCAGTGCTTTCTCTACCACCCGGACCGCAACTCCGGGAGCGCGGAGGCCGCCGAGCGCTTCACGCGCATCTCCCAGGCCTACGTGGTGCTGGGCAGTGCCACCCTCCGTCGCAAGTATGATCGCGGCCTACTCAGCGACGAGGACCTGCGCGGACCTGGCGTCCGGCCCTCCAGGACGCCCGCACCCGACCCCGGCTCGCCGCGTACCCCGCCGCCCACCTCTCGGACCCACGACGGTTCTCGGGCCTCCCCCGGCGCCAACCGCACGATGTTCAACTTTGACGCCTTCTACCAGGCCCACTACGGGGAACAACTGGAGCGGGAACGGCGCCTGAGGGCCCGGCGGGAGGCCCTTCGCAAACGGCAGGAGTATCGGTCCATGAAAGGCCTCCGCTGGGAGGATACCCGAGACACGGCTGCCATTTTCCTCATCTTTTCAATCTTCATCATCATCGGCTTTTATATTTAATCGGAGAGAGAAGGGAAGGGGAGTGTCCCCAGCCAACCCCCCAGAAACGGCCTTTTTTCCTGCCTCTGAACCCTTGGCCGTTGATAGTCTACCTTTGCTGGGATCCGAAGGAACTGTACTCCCCCTGCCCTCCCCGACCCGCCCAGCTTAGCCGATGACCTGCACATCGCTCCACTGTGGTCCAGAAAAGGAGGCCTTTCGATGTCTGAGAAAGAGGCCCCACGCTGTAGAGTCCCGAAAGCCCAGGAGTGAAGGGGGTTCCTGGAGTCTCTAGGGTGCTTCTTCCAGAGTCTGTCTTCTTGCTTCCAGATGTGGTCAACTTCTGGAACACTCGCTGTAGCTTTATTGTTTAGCCCCAAGCAAGATTTATCTCCTCCTGCCCCGCATGTGTATGGTGGGCCTCTGTAACCTTGAAATGTGCAATGTGACCAATTGTTGACTACCAAAAGAAAAGGTCTGGGGTTGT", "Activity = (luciferase activity of the gene of each SEQ ID NO:)/(luciferase activity of pME18S-FL3)": 18.5}
{"molecule": "237 (nucleic acid, listed as Homo sapiens, CDS (66)..(911)) TGCGCGTGCGCAGGGATAAGAGAGCGGTCTGGACAGCGCGTGGCCGGCGCCGCTGTGGGGACAGCATGAGCGGCGGTTGGATGGCGCAGGTTGGAGCGTGGCGAACAGGGGCTCTGGGCCTGGCGCTGCTGCTGCTGCTCGGCCTCGGACTAGGCCTGGAGGCCGCCGCGAGCCCGCTTTCCACCCCGACCTCTGCCCAGGCCGCAGGCCCCAGCTCAGGCTCGTGCCCACCCACCAAGTTCCAGTGCCGCACCAGTGGCTTATGCGTGCCCCTCACCTGGCGCTGCGACAGGGACTTGGACTGCAGCGATGGCAGCGATGAGGAGGAGTGCAGGATTGAGCCATGTACCCAGAAAGGGCAATGCCCACCGCCCCCTGGCCTCCCCTGCCCCTGCACCGGCGTCAGTGACTGCTCTGGGGGAACTGACAAGAAACTGCGCAACTGCAGCCGCCTGGCCTGCCTAGCAGGCGAGCTCCGTTGCACGCTGAGCGATGACTGCATTCCACTCACGTGGCGCTGCGACGGCCACCCAGACTGTCCCGACTCCAGCGACGAGCTCGGCTGTGGAACCAATGAGATCCTCCCGGAAGGGGATGCCACAACCATGGGGCCCCCTGTGACCCTGGAGAGTGTCACCTCTCTCAGGAATGCCACAACCATGGGGCCCCCTGTGACCCTGGAGAGTGTCCCCTCTGTCGGGAATGCCACATCCTCCTCTGCCGGAGACCAGTCTGGAAGCCCAACTGCCTATGGGGTTATTGCAGCTGCTGCGGTGCTCAGTGCAAGCCTGGTCACCGCCACCCTCCTCCTTTTGTCCTGGCTCCGAGCCCAGGAGCGCCTCCGCCCACTGGGGTTACTGGTGGCCATGAAGGAGTCCCTGCTGCTGTCAGAACAGAAGACCTCGCTGCCCTGAGGACAAGCACTTGCCACCACCGTCACTCAGCCCTGGGCGTAGCCGGACAGGAGGAGAGCAGTGATGCGGATGGGTACCCGGGCACACCAGCCCTCAGAGACCTGAGCTCTTCTGGCCACGTGGAACCTCGAACCCGAGCTCCTGCAGAAGTGGCCCTGGAGATTGAGGGTCCCTGGACACTCCCTATGGAGATCCGGGGAGCTAGGATGGGGAACCTGCCACAGCCAGAACTGAGGGGCTGGCCCCAGGCAGCTCCCAGGGGGTAGAACGGCCCTGTGCTTAAGACACTCCTGCTGCCCCGTCTGAGGGTGGCGATTAAAGTTGCT", "Activity = (luciferase activity of the gene of each SEQ ID NO:)/(luciferase activity of pME18S-FL3)": 105.1}
